Consider 2 molecules from article PMC12325586, “OFD1 inhibition induces BRCAness to create a therapeutic vulnerability to PARP inhibition in pancreatic cancer” (Nature Communications, 2025).

Test [1] addresses T1, OFD1-Flag recombinant protein (UniProt O75665 1-1012).
T1 construct: OFD1; also called recombinant OFD1; source: HEK293S, purified (Flag agarose, eluted with Flag peptide)
T1 sequence (looked up): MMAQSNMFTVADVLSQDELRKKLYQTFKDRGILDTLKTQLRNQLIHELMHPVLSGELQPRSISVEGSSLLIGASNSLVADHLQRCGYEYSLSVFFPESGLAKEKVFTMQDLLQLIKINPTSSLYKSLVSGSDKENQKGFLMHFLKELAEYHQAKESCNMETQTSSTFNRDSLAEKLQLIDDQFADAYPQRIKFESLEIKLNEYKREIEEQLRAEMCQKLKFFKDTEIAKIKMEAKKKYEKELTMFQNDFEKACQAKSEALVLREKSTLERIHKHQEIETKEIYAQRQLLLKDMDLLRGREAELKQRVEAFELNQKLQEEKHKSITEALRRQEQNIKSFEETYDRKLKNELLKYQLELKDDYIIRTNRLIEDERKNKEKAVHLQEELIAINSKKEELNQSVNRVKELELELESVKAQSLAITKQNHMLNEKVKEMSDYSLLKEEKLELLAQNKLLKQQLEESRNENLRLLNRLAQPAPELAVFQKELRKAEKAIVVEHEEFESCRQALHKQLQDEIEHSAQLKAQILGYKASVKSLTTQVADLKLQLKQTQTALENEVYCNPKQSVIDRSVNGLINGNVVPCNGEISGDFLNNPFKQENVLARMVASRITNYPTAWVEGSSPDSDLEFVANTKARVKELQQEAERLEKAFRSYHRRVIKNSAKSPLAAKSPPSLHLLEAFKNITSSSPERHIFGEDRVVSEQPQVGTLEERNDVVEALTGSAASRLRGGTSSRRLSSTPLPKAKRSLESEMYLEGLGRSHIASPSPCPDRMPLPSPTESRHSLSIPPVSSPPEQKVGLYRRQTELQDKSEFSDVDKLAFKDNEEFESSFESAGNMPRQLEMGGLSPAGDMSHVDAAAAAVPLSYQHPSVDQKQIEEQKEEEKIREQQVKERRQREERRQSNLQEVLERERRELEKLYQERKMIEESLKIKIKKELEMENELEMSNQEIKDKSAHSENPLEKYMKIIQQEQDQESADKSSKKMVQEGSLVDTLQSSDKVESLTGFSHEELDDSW
The test can be described thus: pull-down; in vitro peptide competition: 5 μg purified OFD1-Flag and E2F4-Strep II-HA with HA agarose; candidate peptides at 200 μM, validation at 0, 12.5, 25, 50, 100 and 200 μM; overnight at 4 °C. The note with it: both partners purified.

For test [2], the target named is T1, OFD1-Flag recombinant protein. The test can be described thus: pull-down; 20 μg purified OFD1-Flag and E2F4-Strep II-HA with Flag agarose or HA agarose in TAP lysis buffer, 3-4 h at 4 °C. The settings on record: both partners purified.

B1: E2F4 peptide spanning residues 283-302 (peptide)
peptide: ELSSLPLGPTTLDTRPLQSS
notes: the TAT-conjugated form was used on cells only; source: synthetic peptide
B1: in test [1], the binding result is “binds”.

B2: E2F4-Strep II-HA recombinant protein (natural protein)
chain: not shown
notes: E2F4; also called recombinant E2F4; source: HEK293S, purified (StrepTactin XT beads, then HA agarose, eluted with HA peptide)
Consider B2, for which, in test [2], the binding result was “binds”.
